Experimental findings from the nanobody polyreactivity screen of Harvey et al. (2022) are described below.

A short description of the data set: yeast display, Sf9 membrane polyspecificity reagent, FACS + sequencing; frameworks hold sequencing errors. The method, boiled down: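 Sorting gates, low and high (top ~1%), were placed on anti-HA fluorescence to track expression and on streptavidin fluorescence to track reagent binding. A clone's polyreactivity label is taken from the gate it came out of. The reagent was 10% biotinylated, detergent-solubilized Sf9 membrane, applied for 1 hour at 4 °C to galactose-induced yeast display cells.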
For the sequence “QVQLVESGGGLVQAGGSLRLSCAASGRIFEHYAMGWYRQAPGKERELVATISSGGSTYYADSVKGRFTISRDNAKNTVYLQMNSLKPEDTAVYYCAAERFWPYKSYYWGQGTQVTVSS”, the “polyreactivity (PSR sort gate)” value was “low polyreactivity”.

As to “QVQLVESGGGLVQAGVSLRLSCAASGFILDYNTMGWYRQAPGKERELVAAISSSGDTTYYADSVKGRFTISRDNAKNTVYLQMNSLKREDTAVYYCAREYGVGYEYWGLGTQVTVSS”, the “polyreactivity (PSR sort gate)” value is listed as “low polyreactivity”. Under “QVQLVESGGGLVQAGGSLRLSCAASGSTFPLYAMGWYRQAPGKERELVAAISSSGGSTYYADSVKGRFTISRDNAKNTVYLQMNNLKPEDTAVYYCAAAPTSYSGYGYWGQGTQVTVSS” stands “low polyreactivity”. In the case of “QVQLVESGGGLVQAGGSLRLSCAASGSIFTRYAMGWYRQAPGKERELVATISKRSGSTYYADSVKGRFTISRDNAKNTVYLQMISLKPEDTAVYYCAARNSGRVKYGYWGQGSQVTVSS” it was “high polyreactivity”. Regarding “QVQLVESGGGLVQAGGSLRLSCAASGSTFATYAMGWYRQAPGKERELVAVITLGGRTYYADSVKGRFTISRDNAKNTVYLQMNSLKPEDTAVYYCAAKAYTYYARIGFDYWGQGTQVTVSS”, the “polyreactivity (PSR sort gate)” value is “high polyreactivity”. In the case of “QVQLVESGGGLVQAGGSLRLSCAASGSTFTGNAMGWYRQAPGKERELVASINGSSGSTYYADSVKGRFTISRDNAKNTVYLQMNSLKPEDTAVYYGAKDSFLHFPRVGWVGLEYWGQGTQVTVSS” it was “low polyreactivity”; in that of “QVQLVESGGGLVQAGGSLRLSCAASGRIFVIYAMGWYRQAPGKERELVASIRSSSTYYADSVKGRFTISRDNAKNTVYLQMNSLKPEDTAVYYCAAVAEYRGYDYWGQGTQVTVSS”, “low polyreactivity”. Under “QVQLVESGGGLDQAGGSLRLSCAASGLIFRRYAMGWYRQAPGKEREFVAAIRWNGGTTYYADSVKGRFTISRDNAKYTVYLQMNSLKPEDTAVYYCAARVYPAYPRGYDYWGQGTQVTVSS” stands “high polyreactivity”; under “QVQLVESGGGVVQAGGSLRLSCAASGSTLARYAMGWYRQSPGKERELVAAISSDGRTYYADSVKGRFTISRDNAKNTVYLQMNSLKPEDTAVYYCSAVGKPGVYQEGDYWGQGTQVTVSS”, “high polyreactivity”. Regarding “QVRHVESGGGLVQAGGSLRLSCAASGGIFTTYAVGWYREAPGKEWELVARINSRGGRTYYADSVKGRFTISRDNAKYTVYLQMISLKPEDTGVYYCAVRNPRYFNEYDYWGQGTQVTVSS”, the “polyreactivity (PSR sort gate)” value was “low polyreactivity”. In the case of “QVQLVETGGGLVQAGGSLRLICAASGRIFTWYAMGWYRQGPGKERELVATNSYNGGRTYYADSVKGRFTISRDNAKNTVYLQMNSLKPEDNAVYYCNTVPVGSVSHGLDSRFGYWGQGTQVTVSS” it was “high polyreactivity”; in that of “QVQLVESGGGLVQAGGSLRLSCAASGFIFYKYAMGWYRQAPGKERELVAAITARGGSTYYADSVKGRFTISRDNAKNTVYLQMNSLKPEDTAVYYCAADTYFSGAGGQAYQYDYWGQGTQVTVSS”, “high polyreactivity”; in that of “QVQLVESGGGLVQAGGSLRLSCAATGFIFAANAMGWYRQAPGKERELVAAINYRGSSTYYADSVKGRFTISRDNAKNTVYLQMNSLKPEDTAVYYCAARSGAQRGGGYWGQGTQVTVSS”, “high polyreactivity”. As for “QVQLVESGGGLVQAGGSLRLSCASSGITFDYYDMGWYRQPPGKERELVAAISTGGGRTYYADSVKGRFTFSRDNAKNTVYLQMNSLKPEDTAVYYCAATYTRVPNRFYYWGQGTQVTVSS”, the “polyreactivity (PSR sort gate)” value is on record as “high polyreactivity”. Under “QVQLVESGGGLVQAGGSLRLSCAASGSTVRGYAKGWYRQAPGKERELGAAITWSGGTTYYADSVKGRFTISRDNAKTTVYLQMNSLKPEDTAVYYCAAQNWDSDPYDYWGQATQVTVSS” stands “low polyreactivity”; under “QVQLVESGGGLVQAGGSLRLSCAASGRIFDRNAMGWYRQAPGKERELVARIDPGDDTNYADSVKGRFTISRDNAKNTVYLQMNSLKAEDTAVYYCATDPDYVLYRTAYYEYDYWGQGTQVTVSS”, “low polyreactivity”. Under “QVQLVESGGGLVQAGGSLRLSCAASGFIFYRNTMGWYRQAPGKEREFVAAIRWRGGSTYYADSVKGRFTISRDNAKNTVYLQMNSLKPEDTAVYYCAAGTPWSVEGSYVTYPWNRYYYWGQGTQVTVSS” stands “high polyreactivity”; under “QVQLVESGGGLVQAGGSLRLSCAASGSTFDYYAMGWYRQAPAKERELVAVISRSGGSTYYADSVKGRFTISRDNAKNTVYLQMNSLKPEDTAVYYCAKSRPSKYDYWGQGTQVTVSS”, “high polyreactivity”. Under “QVQLVESGGGLVQAGGSLRLSCAASGRTFNYYNMGWYRQAPGKARELVAAISRGGTTYYADSVKGRFTISRDNAKKTVYLQMNSLKPEDTAVYYCAVAYAPRVQTVWSYVSGSTYYSSGQGTQVTVSS” stands “high polyreactivity”; under “QVQLVESGGGLVQAGGSLRLSCAASGYTFIVNAMGWYRQAPGKERELVAAISRSGSSTRYADSVKWRFTISRDNAKNTVYLQMNSLKPEDTAVYYCGADLYSSEGRYYYWGQGTQVTVST”, “high polyreactivity”. Consider “QVQLVESGAGLVQAGGSLRLSCAASGRTFVYNAMGWYRQAPGKERELVAAISSDGASTYYADSVKGRFTISRDNAKNTVYLQMNRLNPEDTAVYYCAADFSYYSYEHYYWGQATQVTVSS”, for which the “polyreactivity (PSR sort gate)” value is “low polyreactivity”.

Turning to “QVQHVESGGGIVQAGGSLRLSCAASGGIFGYYAMGWYRQAPGKEREFVATITRGGGSTYYADSVKGRFTISRDNAKNTVYLQMNSLKPEDSAVYYCNAKPSYYQRYIYWGQGTQVTVSS”, the “polyreactivity (PSR sort gate)” value was “high polyreactivity”.

Turning to “QVQLVESVGGLVQAGDSLPLSCAPSAYIFRAYAMGWFRQAPGKASELVAAISSRGGSTYYADSVKGRFTISRDNATQTVYLQMNSLKPEDTAVYYCAAAYRQPYIGYGYWGQGTQVTVTS”, the “polyreactivity (PSR sort gate)” value is listed as “high polyreactivity”. In the case of “QVQLVESGGGLVQAGGSLRLSCAASGSTFVTYAMGWYRQAPGKERELVAAITTSGGSTYYADSVKGRFTISRANAMNTVYLQMNSLKPEDTAVYYCIAGFEYTQEYDYWGQGTQVTVSS” it was “low polyreactivity”; in that of “QVQLVETVGGLVQAGGSLRLSCAASGIIFKRYPLGGYRQAPGKERELVAAITNRGGTYYADSVKGRFTISRDNEKNSVYLQMYSLKPEDTAVYYFAARYYWIDFKFGGPRDYWGQGTQVTVSS”, “high polyreactivity”. In the case of “QFQLVESGGGLVHAGGRLRLSCAASGITFVTYAMGWYRQAPGKERELVAAISRSGGRPYYADSVKGRFTISRDNATNTDYLQMNSLKPEDTAVYYCAAERKNKYDYWGQGTQVTVSS” it was “high polyreactivity”; in that of “QVQLGESGGGLVQAGGSLRLSCAASGRTLWFYAMGWYRQAPGKERELVAAISSGGSTNYGDSVKGRFTISRDNAKNTVYLQMNSLKPEDTAVYYCAKVGNIPYGTRYDSNRYDYWGQGTQVTVSS”, “low polyreactivity”.

Regarding “QVQLVESAGGLVQAGGSLRLTCAASGLTFRVFAMGWYRQAPGKERELVAAISSRGGSTYYADSVKGRFTISRDNAKYTVYLQMNSLKPEDTAVYDCYARGQGGYWGQGTQVTVSS”, the “polyreactivity (PSR sort gate)” value is “high polyreactivity”. Under “QVQLVESGGGLVQAGGSLRLSCAASGRTFRLYAMGWYRQAPGKERELVAAITRGGRTNYADSVKGRFTISRDNAKNTVYLQMYSLKPEDTAVYYCARDFVAYGDDYWGQGTQVTVSS” stands “low polyreactivity”. For “QVQLVESGGGLVQAGGSLRLSCAASGRTFVWNVMGWYRQAPGKEREFVAAISGGSTYYADSVKGRFTISRDNAKNTVYLKMNSLKQEDTPVYYCAAASKLHPRYEYWGQGTQVTVSS”, the “polyreactivity (PSR sort gate)” value is recorded as “low polyreactivity”.
